Residue numbers refer to the chain shown, from its start.
T1: recombinant human tumor antigen CEACAM-6 (ACRO systems, CE6-H5223) (human, UniProt P40199 35-320)
T1 construct: Bought
T1 sequence (looked up): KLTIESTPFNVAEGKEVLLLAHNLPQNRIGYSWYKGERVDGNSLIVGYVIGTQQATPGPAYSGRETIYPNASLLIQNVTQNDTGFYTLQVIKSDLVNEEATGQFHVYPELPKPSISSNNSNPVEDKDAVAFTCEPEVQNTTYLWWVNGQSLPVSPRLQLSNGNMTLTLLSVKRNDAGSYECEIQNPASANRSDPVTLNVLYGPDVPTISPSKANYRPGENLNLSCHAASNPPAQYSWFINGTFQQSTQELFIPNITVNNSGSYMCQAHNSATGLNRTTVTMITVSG

B1: unilateral CD3/CEA-CAM6/HER2 trispecific antibody 701 (other)
chain 1: EVKLLESGGGLVQPKGSLKLSCAASGFTFNTYAMNWVRQAPGKGLEWVARIRSKYNNYATYYADSVKDRFTISRDDSQSILYLQMNNLKTEDTAMYYCVRHGNFGNSYVSWFAYWGQGTLVTVSSASTKGPSVFPLAPCSRSTSESTAALGCLVKDYFPEPVTVSWNSGALTSGVHTFPAVLQSSGLYSLSSVVTVPSSSLGTKTYTCNVDHKPSNTKVDKRVESKYGPPCPPCPAPEAAGGPSVFLFPPKPKDTLMISRTPEVTCVVVDVSQEDPEVQFNWYVDGVEVHNAKTKPREEQFNSTYRVVSVLTVLHQDWLNGKEYKCKVSNKGLPSSIEKTISKAKGQPREPQVYTLPPCQEEMTKNQVSLWCLVKGFYPSDIAVEWESNGQPENNYKTTPPVLDSDGSFFLYSRLTVDKSRWQEGNVFSCSVMHEALHNHYTQKSLSLSL
chain 2: QVQLVQSGGGLVQAGGSLRLSCAASGRTFSSYAMAWFRQAPGKEREFVAAISWSGANIYVADSVKGRFTISRDNAKDTVYLQMNSLKPEDTAVYYCAVKLGFAPVEERQYDYWGQGTQVTVSSESKYGPPCPPCPAPEAAGGPSVFLFPPKPKDTLMISRTPEVTCVVVDVSQEDPEVQFNWYVDGVEVHNAKTKPREEQFNSTYRVVSVLTVLHQDWLNGKEYKCKVSNKGLPSSIEKTISKAKGQPREPQVCTLPPSQEEMTKNQVSLSCAVKGFYPSDIAVEWESNGQPENNYKTTPPVLDSDGSFFLVSRLTVDKSRWQEGNVFSCSVMHEALHNRFTQKSLSLSL
chain 3: QAVVTQESALTTSPGETVTLTCRSSTGAVTTSNYANWVQEKPDHLFTGLIGGTNKRAPGVPARFSGSLIGDKAALTITGAQTEDEAIYFCALWYSNLWVFGGGTKVEIKRTVAAPSVFIFPPSDEQLKSGTASVVCLLNNFYPREAKVQWKVDNALQSGNSQESVTEQDSKDSTYSLSSTLTLSKADYEKHKVYACEVTHQGLSSPVTKSFNRGECGGGGSGGGGSQVKLEESGGGLVQAGGSLRLSCRTSGRTNSVYTMGWFRQAPGKEREFVAQIMWGAGTNTHYADSVKGRFTISRDSAESTVYLQMNSLKPEDTAVYYCAANRGIPIAGRQYDYWGQGTQVTVSS
B2: unilateral CD3/CEA-CAM6/HER2 trispecific antibody 711 (other)
chain 1: QVQLVQSGGGLVQAGGSLRLSCAASGRTFSSYAMAWFRQAPGKEREFVAAISWSGANIYVADSVKGRFTISRDNAKDTVYLQMNSLKPEDTAVYYCAVKLGFAPVEERQYDYWGQGTQVTVSSGGGGSGGGGSEVKLLESGGGLVQPKGSLKLSCAASGFTFNTYAMNWVRQAPGKGLEWVARIRSKYNNYATYYADSVKDRFTISRDDSQSILYLQMNNLKTEDTAMYYCVRHGNFGNSYVSWFAYWGQGTLVTVSSASTKGPSVFPLAPCSRSTSESTAALGCLVKDYFPEPVTVSWNSGALTSGVHTFPAVLQSSGLYSLSSVVTVPSSSLGTKTYTCNVDHKPSNTKVDKRVESKYGPPCPPCPAPEAAGGPSVFLFPPKPKDTLMISRTPEVTCVVVDVSQEDPEVQFNWYVDGVEVHNAKTKPREEQFNSTYRVVSVLTVLHQDWLNGKEYKCKVSNKGLPSSIEKTISKAKGQPREPQVYTLPPCQEEMTKNQVSLWCLVKGFYPSDIAVEWESNGQPENNYKTTPPVLDSDGSFFLYSRLTVDKSRWQEGNVFSCSVMHEALHNHYTQKSLSLSL
chain 2: QVKLEESGGGLVQAGGSLRLSCRTSGRTNSVYTMGWFRQAPGKEREFVAQIMWGAGTNTHYADSVKGRFTISRDSAESTVYLQMNSLKPEDTAVYYCAANRGIPIAGRQYDYWGQGTQVTVSSESKYGPPCPPCPAPEAAGGPSVFLFPPKPKDTLMISRTPEVTCVVVDVSQEDPEVQFNWYVDGVEVHNAKTKPREEQFNSTYRVVSVLTVLHQDWLNGKEYKCKVSNKGLPSSIEKTISKAKGQPREPQVCTLPPSQEEMTKNQVSLSCAVKGFYPSDIAVEWESNGQPENNYKTTPPVLDSDGSFFLVSRLTVDKSRWQEGNVFSCSVMHEALHNRFTQKSLSLSL
chain 3: QAVVTQESALTTSPGETVTLTCRSSTGAVTTSNYANWVQEKPDHLFTGLIGGTNKRAPGVPARFSGSLIGDKAALTITGAQTEDEAIYFCALWYSNLWVFGGGTKVEIKRTVAAPSVFIFPPSDEQLKSGTASVVCLLNNFYPREAKVQWKVDNALQSGNSQESVTEQDSKDSTYSLSSTLTLSKADYEKHKVYACEVTHQGLSSPVTKSFNRGEC
B3: unilateral CD3/CEA-CAM6/HER2 trispecific antibody 703 (other)
chain 1: B1 chain 1
chain 2: B1 chain 2
chain 3: QVKLEESGGGLVQAGGSLRLSCRTSGRTNSVYTMGWFRQAPGKEREFVAQIMWGAGTNTHYADSVKGRFTISRDSAESTVYLQMNSLKPEDTAVYYCAANRGIPIAGRQYDYWGQGTQVTVSSGGGGSGGGGSQAVVTQESALTTSPGETVTLTCRSSTGAVTTSNYANWVQEKPDHLFTGLIGGTNKRAPGVPARFSGSLIGDKAALTITGAQTEDEAIYFCALWYSNLWVFGGGTKVEIKRTVAAPSVFIFPPSDEQLKSGTASVVCLLNNFYPREAKVQWKVDNALQSGNSQESVTEQDSKDSTYSLSSTLTLSKADYEKHKVYACEVTHQGLSSPVTKSFNRGEC
B4: unilateral CD3/CEA-CAM6/HER2 trispecific antibody 710 (other)
chain 1: B2 chain 2 with C254Y, S259C, S271W, A273L, V312Y, R340H, F341Y
chain 2: B1 chain 1 with Y354C, C359S, W371S, L373A, Y412V, H440R, Y441F
chain 3: QVQLVQSGGGLVQAGGSLRLSCAASGRTFSSYAMAWFRQAPGKEREFVAAISWSGANIYVADSVKGRFTISRDNAKDTVYLQMNSLKPEDTAVYYCAVKLGFAPVEERQYDYWGQGTQVTVSSGGGGSGGGGSQAVVTQESALTTSPGETVTLTCRSSTGAVTTSNYANWVQEKPDHLFTGLIGGTNKRAPGVPARFSGSLIGDKAALTITGAQTEDEAIYFCALWYSNLWVFGGGTKVEIKRTVAAPSVFIFPPSDEQLKSGTASVVCLLNNFYPREAKVQWKVDNALQSGNSQESVTEQDSKDSTYSLSSTLTLSKADYEKHKVYACEVTHQGLSSPVTKSFNRGEC
B5: unilateral CD3/CEA-CAM6/HER2 trispecific antibody 709 (other)
chain 1: B1 chain 1
chain 2: B2 chain 2
chain 3: B4 chain 3
B6: CEA-BsAb (CD3 TA1-Fab x CEA VHH bispecific control antibody) (bispecific antibody, human IgG4 S228P, kappa, F234A L235A)
heavy: B1 chain 1
chain: EVQLVESGGGFVQAGESLTLSCTSSTLTFTPYRMAWYRQAPGKQRDLVADISSGDGRTTNYADFAKGRFTISRDNIKNTVFLRMTNLKPEDTAVYYCNTFVSFVGIARSWGQGTQVTVSSESKYGPPCPPCPAPEAAGGPSVFLFPPKPKDTLMISRTPEVTCVVVDVSQEDPEVQFNWYVDGVEVHNAKTKPREEQFNSTYRVVSVLTVLHQDWLNGKEYKCKVSNKGLPSSIEKTISKAKGQPREPQVCTLPPSQEEMTKNQVSLSCAVKGFYPSDIAVEWESNGQPENNYKTTPPVLDSDGSFFLVSRLTVDKSRWQEGNVFSCSVMHEALHNRFTQKSLSLSL
light: B2 chain 3

molecular target: T2, recombinant human tumor antigen HER2 (ERBB2, ACRO systems, HE2-H5212) (human, UniProt P04626 23-652); assay: BLI, antibody on AHC sensor, antigen as analyte
T2 construct: Bought

| Kd | koff | kon | Binder |
| --- | --- | --- | --- |
| 37.5 nM | 0.00693 s⁻¹ | 185000 M⁻¹ s⁻¹ | B1 |
| 38.9 nM | 0.00888 s⁻¹ | 228000 M⁻¹ s⁻¹ | B2 |
| 16.3 nM | 0.00356 s⁻¹ | 218000 M⁻¹ s⁻¹ | B3 |
| 15.4 nM | 0.00383 s⁻¹ | 249000 M⁻¹ s⁻¹ | B4 |
| 20.7 nM | 0.00455 s⁻¹ | 219000 M⁻¹ s⁻¹ | B5 |

molecular target: T1, recombinant human tumor antigen …; assay: BLI, antibody on AHC sensor, antigen as analyte

| Kd | koff | kon | Binder |
| --- | --- | --- | --- |
| 13.3 nM | 0.00297 s⁻¹ | 223000 M⁻¹ s⁻¹ | B1 |
| 4.52 nM | 0.00254 s⁻¹ | 562000 M⁻¹ s⁻¹ | B2 |
| 5.16 nM | 0.00187 s⁻¹ | 363000 M⁻¹ s⁻¹ | B3 |
| 4.48 nM | 0.00179 s⁻¹ | 398000 M⁻¹ s⁻¹ | B4 |
| 4.16 nM | 0.0018 s⁻¹ | 433000 M⁻¹ s⁻¹ | B5 |

molecular target: T3, recombinant human protein CD3ε/δ (ACRO systems, CDD-H52W1) (human, UniProt P07766 23-126; P04234 22-105); assay: BLI, antibody on AHC sensor, antigen as analyte
T3 construct: Bought heterodimer
T3 sequence (P07766 23-126, stated change not applied, chain 1 of 2): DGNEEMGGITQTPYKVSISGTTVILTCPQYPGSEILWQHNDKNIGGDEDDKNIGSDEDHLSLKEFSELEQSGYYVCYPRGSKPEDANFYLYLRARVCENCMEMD
T3 sequence (P04234 22-105, stated change not applied, chain 2 of 2): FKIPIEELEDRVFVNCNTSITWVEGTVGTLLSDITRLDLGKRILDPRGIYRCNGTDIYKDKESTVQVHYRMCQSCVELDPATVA
Description: (§1) Antibodies were first captured onto an anti-human IgG Fc coated AHC biosensor (Anti-hIgG Fc, Sartorius, 18-5060). Antibodies were diluted to 5 μg/mL and 1.5 nm protein was coupled to the AHC sensor surface in 0.02% PBST.
(§2) After the sensor captures the antibodies, it binds and dissociates with different concentrations of analytes to obtain the KD value of the interaction. The experimental parameters are as follows: Baseline1: 60 s, Loading: 240 s, Baseline2: 180 s, Association: 240 s, Dissociation: 600 s, High sensitivity kinetics: 2 Hz. Kinetic constants were derived based on the rate equation for 1:1 Langmuir binding to obtain equilibrium dissociation constants (KD). The Data Analysis HT 12 software (Sartorius, 50-5029) was used to simultaneously fit binding and dissociation curves to calculate Kₒₙ and Koff. The affinity KD was calculated based on the below formula: KD=Koff/Kₒₙ.

| Kd | koff | kon | Binder |
| --- | --- | --- | --- |
| 1.64 nM | 0.00045 s⁻¹ | 275000 M⁻¹ s⁻¹ | B6 |

molecular target: T2, recombinant human tumor antigen HER2 …; assay: BLI, antibody on AHC sensor, antigen as analyte; remark: another data set of the same source
Description: as §1, §2

| koff | kon | Binder |
| --- | --- | --- |
| 0.027 s⁻¹ | 3680 M⁻¹ s⁻¹ | B6 |

molecular target: T3, recombinant human protein CD3ε/δ (ACRO …); assay: BLI, antibody on AHC sensor, antigen as analyte; remark: another data set of the same source

| Kd | koff | kon | Binder |
| --- | --- | --- | --- |
| 1.3 nM | 0.000402 s⁻¹ | 309000 M⁻¹ s⁻¹ | B1 |
| 1.41 nM | 0.000516 s⁻¹ | 367000 M⁻¹ s⁻¹ | B2 |
| 0.379 nM | 8.4e-05 s⁻¹ | 222000 M⁻¹ s⁻¹ | B3 |
| 0.686 nM | 0.000127 s⁻¹ | 186000 M⁻¹ s⁻¹ | B4 |
| 0.351 nM | 6.18e-05 s⁻¹ | 176000 M⁻¹ s⁻¹ | B5 |
